Reference: patent EP1167527A9 (Euroscreen S.A., dated 2002)

Legend:
[1] = target: T1, chemokine receptor CCR1 (human, UniProt P32246 1-355); assay: radioligand competition binding, CCR1
T1 construct: whole, on cells
T1 sequence (looked up): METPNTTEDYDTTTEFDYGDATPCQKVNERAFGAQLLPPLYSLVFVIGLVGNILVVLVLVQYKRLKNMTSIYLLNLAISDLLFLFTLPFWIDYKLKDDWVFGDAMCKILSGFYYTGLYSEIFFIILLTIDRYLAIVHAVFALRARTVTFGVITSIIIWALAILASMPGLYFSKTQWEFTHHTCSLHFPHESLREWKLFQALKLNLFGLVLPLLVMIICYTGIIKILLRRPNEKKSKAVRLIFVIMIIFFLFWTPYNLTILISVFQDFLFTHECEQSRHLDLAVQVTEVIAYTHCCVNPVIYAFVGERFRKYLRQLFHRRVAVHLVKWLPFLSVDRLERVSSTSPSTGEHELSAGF

[2] = target: T2, chemokine receptor 5 (CCR5; AC P51681) (human, UniProt P51681 1-352); assay: cell-based or functional assay
T2 sequence (P51681 whole entry, one chain of several): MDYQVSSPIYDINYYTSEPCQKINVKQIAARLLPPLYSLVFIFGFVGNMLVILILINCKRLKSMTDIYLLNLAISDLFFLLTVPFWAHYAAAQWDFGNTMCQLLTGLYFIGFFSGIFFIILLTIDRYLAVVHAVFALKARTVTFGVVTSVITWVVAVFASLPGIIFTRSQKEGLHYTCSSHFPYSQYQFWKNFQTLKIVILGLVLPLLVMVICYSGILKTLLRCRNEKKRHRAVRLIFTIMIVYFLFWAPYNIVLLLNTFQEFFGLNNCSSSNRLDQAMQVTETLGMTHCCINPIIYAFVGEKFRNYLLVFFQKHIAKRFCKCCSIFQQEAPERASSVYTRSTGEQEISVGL

[3] = target: T1, chemokine receptor CCR1; assay: cell-based or functional assay
[4] = target: T3, chemokine receptor CCR3 (human, UniProt P51677 1-355); assay: radioligand competition, 125I-Eotaxin tracer, CCR3
T3 construct: whole, on cells
T3 sequence (looked up): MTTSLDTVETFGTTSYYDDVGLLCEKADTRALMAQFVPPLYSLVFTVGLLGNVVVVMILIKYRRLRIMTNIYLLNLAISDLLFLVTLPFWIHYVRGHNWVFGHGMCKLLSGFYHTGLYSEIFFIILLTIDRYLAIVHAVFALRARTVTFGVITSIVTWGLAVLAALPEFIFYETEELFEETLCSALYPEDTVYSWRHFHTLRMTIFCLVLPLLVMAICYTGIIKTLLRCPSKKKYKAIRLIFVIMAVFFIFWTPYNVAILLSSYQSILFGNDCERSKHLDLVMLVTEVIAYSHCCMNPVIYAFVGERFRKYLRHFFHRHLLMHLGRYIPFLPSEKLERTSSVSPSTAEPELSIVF

[5] = target: T2, chemokine receptor 5 (CCR5; AC P51681); assay: radioligand competition, 0.1 nM 125I-MIP 1-alpha tracer, crude membranes of CHO-K1 cells expressing CCR5
[6] = target: T1, chemokine receptor CCR1; assay: radioligand competition, 125I-Rantes tracer, CCR1
[7] = target: T1, chemokine receptor CCR1; assay: radioligand competition, 0.1 nM 125I-Rantes tracer, crude membranes of CHO-K1 cells expressing CCR1
[8] = target: T3, chemokine receptor CCR3; assay: cell-based or functional assay
[9] = target: T3, chemokine receptor CCR3; assay: radioligand competition, 0.1 nM 125I-Eotaxin tracer, crude membranes of CHO-K1 cells expressing CCR3
[10] = target: T2, chemokine receptor 5 (CCR5; AC P51681); assay: radioligand competition, 125I-MIP 1-alpha tracer, CCR5

B1: full size human chemokine HCC-1, amino acid residues 1-74 (ligand)
chain: TKTESSSRGPYHPSECCFTYTTYKIPRQRIMDYYETNSQCSKPGIVFITKRGHSVCTNPSDKWVQDYIKDMKEN
notes: 74-residue chemokine, Mr 8673; Swiss-Prot Q16627 is printed for the HCC-1 precursor; also called full-size HCC-1; full length HCC-1
In the case of B1, the Ki [1] is reported as 100 nM.

B2: RANTES (ligand, UniProt P13501 24-91, looked up)
chain: SPYSSDTTPCCFAYIARPLPRAHIKEYFYTSGKCSNPAVVFVTRKNRQVCANPEKKWVREYINSLEMS
With B2 the “aequorin assay (intracellular calcium), CHO-K1 cells expressing CCR5, EC50” value (from here on “aequorin assay (intracellular calcium)”) [2] was 2.4 nM and the “functional aequorin-based assay, EC50” value [3] was 6.3 nM.

B3: MIP 1-alpha (ligand, UniProt P10147 24-92, looked up)
chain: SLAADTPTACCFSYTSRQIPQNFIADYFETSSQCSKPGVIFLTKRSRQVCADPSEEWVQKYVSDLELSA
For B3, the “aequorin assay (intracellular calcium)” value [2] was 3.3 nM.

B4: processed human chemokine PHC-1 (ligand)
chain: GPYHPSECCFTYTTYKIPRQRIMDYYETNSQCSKPGIVFITKRGHSVCTNPSDKWVQDYIKDMKEN
notes: Purified from human hemofiltrate or made by tryptic digestion of HCC-1 (1-74); also called HCC-1[9-74]; HCC-1, residues 9-74
Work on B4 yielded a Ki [4] of 2.7 nM, an IC50 [5] of 0.04 nM and a Ki [6] of 0.023 nM. For the same binder, the IC50 [7] was 2.3 nM, the “functional aequorin-based assay, EC50” value [8] was 78 nM and the “aequorin assay (intracellular calcium)” value [2] was 4.8 nM. For the same binder, the “functional aequorin-based assay, EC50” value [3] was 2.8 nM, the IC50 [9] was 78 nM and the Ki [10] was 0.04 nM.
